Assay [1] addresses dasTMPRSS11D (active, autocleaved TMPRSS11D with DDDDK zymogen activation motif) (human) (UniProt O60235).
The target of assay [2] is dasTMPRSS2 (active TMPRSS2 ectodomain with DDDDK zymogen activation motif) (human) (UniProt O15393).
The target is the same in assay [3]. This is another data set of the same source.

Sequence of dasTMPRSS11D (active, autocleaved TMPRSS11D with DDDDK zymogen activation motif) (human) (O60235 other isoform, or with tags, fused parts or gaps L182D | S183D | E184D | Q185D | R186K, chain 1 of 2): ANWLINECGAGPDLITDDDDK
Sequence of dasTMPRSS11D (active, autocleaved TMPRSS11D with DDDDK zymogen activation motif) (human) (O60235 187-418, chain 2 of 2): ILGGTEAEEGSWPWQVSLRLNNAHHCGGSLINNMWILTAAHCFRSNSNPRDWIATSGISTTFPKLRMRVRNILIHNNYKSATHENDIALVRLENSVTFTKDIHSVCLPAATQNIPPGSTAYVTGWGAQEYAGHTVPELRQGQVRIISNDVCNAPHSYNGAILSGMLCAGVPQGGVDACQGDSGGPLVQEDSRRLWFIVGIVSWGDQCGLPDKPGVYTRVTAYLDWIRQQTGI
Sequence of dasTMPRSS2 (active TMPRSS2 ectodomain with DDDDK zymogen activation motif) (human) (O15393 other isoform, or with tags, fused parts or gaps, chain 1 of 2): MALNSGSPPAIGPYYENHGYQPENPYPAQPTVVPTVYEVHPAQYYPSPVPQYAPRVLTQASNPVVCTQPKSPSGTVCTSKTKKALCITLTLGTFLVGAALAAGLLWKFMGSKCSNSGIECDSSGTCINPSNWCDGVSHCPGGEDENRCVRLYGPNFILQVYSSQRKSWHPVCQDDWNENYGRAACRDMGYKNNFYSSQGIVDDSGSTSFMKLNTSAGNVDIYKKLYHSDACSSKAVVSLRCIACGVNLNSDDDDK
Sequence of dasTMPRSS2 (active TMPRSS2 ectodomain with DDDDK zymogen activation motif) (human) (O15393 256-492, chain 2 of 2): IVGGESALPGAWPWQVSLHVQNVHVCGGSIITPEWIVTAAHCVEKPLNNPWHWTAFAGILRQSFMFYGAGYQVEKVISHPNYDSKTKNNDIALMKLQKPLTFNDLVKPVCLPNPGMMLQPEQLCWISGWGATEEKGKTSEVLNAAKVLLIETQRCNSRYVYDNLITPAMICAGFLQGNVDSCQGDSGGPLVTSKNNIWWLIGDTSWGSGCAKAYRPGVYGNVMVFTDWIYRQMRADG

“Peptidomimetic 4, Ac-Glu-D-Glu-Arg-kbt (peptide)” showed an IC50 of inhibition of dasTMPRSS11D (15 nM) peptidase activity on Boc-QAR-AMC (100 µM) in assay [1] of 111 nM. The substance further came in with an IC50 of inhibition of dasTMPRSS2 (1.5 nM) peptidase activity on Boc-QAR-AMC (100 µM) in assay [2] of 42 nM.
Consider “Peptidomimetic 5, Ac-Glu-Orn-Arg-kbt (peptide)”, for which the IC50 of inhibition of dasTMPRSS11D (15 nM) peptidase activity on Boc-QAR-AMC (100 µM) in assay [1] stood at 2100 nM. Further, the IC50 of inhibition of dasTMPRSS2 (1.5 nM) peptidase activity on Boc-QAR-AMC (100 µM) in assay [2] turned out to be 6.2 nM.
“Peptidomimetic 1, Ac-Glu-Gln-Arg-kbt (peptide)” gave an IC50 of inhibition of dasTMPRSS2 (1.5 nM) peptidase activity on Boc-QAR-AMC (100 µM), 10 min pre-incubation in assay [3] of 2.2 nM.
Same read-out and setting: for “Peptidomimetic 2, Ac-Gln-Ser-Arg-kbt (peptide)” the value was 2.1 nM.
“Peptidomimetic 3, Ac-Glu-Glu-Arg-kbt (peptide)”: the IC50 of inhibition of dasTMPRSS11D (15 nM) peptidase activity on Boc-QAR-AMC (100 µM) in assay [1] worked out at 7.1 nM. In addition, the IC50 of inhibition of dasTMPRSS2 (1.5 nM) peptidase activity on Boc-QAR-AMC (100 µM) in assay [2] was 3.2 nM.

The values above are taken from PMC12065894.
